Experiment: soluble on expression in E. coli; label from the status in PepcDB or PDB records

**Q.** Which “soluble on expression in E. coli” value does the source give for “MGSDKIHHHHHHMRILYINHYAGSPRHGMEFRPYYLAREWVKAGHEVNMLAADVSHLRQTHPQVDGKYRDEDIDGIRYTWCKTRPYSGNGVGRVLNIFSFLAKVMGLSRRYLKEWQPDVVIASSTYPLDTVPAAWIAGKTGARLVYEVHDLWPLTPVEVGGMSPKHPFIRLLQWAEDFGYKRADTVVSMLPCARDYMMAHGMAAEKYAVIPNGVDVSEWQGETLPLSAEHRMRLAELKSHGRFIVGYAGGHGLANALDYLLEAAALMRDAPVTFVLVGDGPDKQALVSRAAELKLDNVMFLPSIAKRSVPAFLAECDALYIGWRKLPIYRFGINPNKLFDYMMAGKPVIHSVEAGNDMVKDAGAGLSIGVEDPAVIADAVKRMAVLPLAERETMGAAGKAYVLANHDYAVLARRFLAAVKL” here?
**A.** The value was “not soluble”.

**Q.** Which “soluble on expression in E. coli” value does the source give for “MNFGAYGKITDVEFVSDSEGPLHFCIITFADSRSVDVLLTKSIYIRDVLMFTRRAVLKESVKIAEHKIKEQEQQNLVQLPPNHTAYLTPSRPVTSVHASSSASSNHYDPSAAAGYAPLYHQPPESDPLSQCGYGPRKW” here?
**A.** Its value is “not soluble”.

**Q.** With “MAHHHHHHMESIKAKCTAKNLVNEKPAQKTPLSISISEKHKAQLREAFDLFDSEGTGRIKALDVKVALCALGYDVSKEELTQLLKQVGGSIVGGVDFNEFYCVLLAKMMQRESRSEAIRAFRLIDVAEKGYISVDDLRPIADSLEMDLTDDELAEMVLFAHPPVGFGKNENDIKEPLTVSEEEFLKLMGRAHVY” as the sequence, how does the “soluble on expression in E. coli” value read?
**A.** Its value is “soluble”.

**Q.** With “GSMAPLGGAPRLVLLFSGKRKSGKDFVTEALQSRLGADVCAVLRLSGPLKEQYAQEHGLNFQRLLDTSTYKEAFRKDMIRWGEEKRQADPGFFCRKIVEGISQPIWLVSDTRRVSDIQWFREAYGAVTQTVRVVALEQSRQQRGWVFTPGVDDAESECGLDNFGDFDWVIENHGVEQRLEEQLENLIEFIRSRLKLHHHHHH” as the sequence, how does the “soluble on expression in E. coli” value read?
**A.** The value was “soluble”.

**Q.** With “MSLNATARQEPADLNDPALRARAVTAARGDAPFDMLITGGRLLDTVTGLIRQADIGLVGALISSVHAPASRTDAVEIIDAAGSILTPGLIDTHMHIESSMVTPAEYASAVLPRGVTTIVWDPHEFGNVHGLDGVRWAIEAARSLPLRMILLAPSCVPSAPGLELAGADFDASMITEMLHSSAVGGVAEVMNMRGVIDGDPRMTDIVNAGLAAGKLVCGHARGLEGADLNAFMASGITSDHELTSGADLLAKLSAGLTIELRGSHDHLLQEFVEVLSGLGHLPPTVTLCTDDVFPDELQEGGGLDDVVRRLVRYGMKPEWAIRAATFNAAQRLKRSDLGLVATGRRADIVLFEDLTEFRARLVISGGRIVARNGSMQVAVQQIDTAPLVNSVKLPPLTENDFRIPAKGERVRVATIDRPRFTQWGEAETEVRDGFIVPPAGSAMISVAHRHGKTDGIPRIGFLTGWGEWRGAFCTTVSHDSHNLTVFGGNAGDMALAANAVISAGGGMAVAKDGRIEAMLPLPLSGLVTDASLKDTALAFAGIRKAMEKIVTWKPPYLVFKACFGATLACNVGPHQTDQGIADVVTGKVLENPVLAVWEGHHHHHH” as the sequence, how does the “soluble on expression in E. coli” value read?
**A.** The value was “soluble”.

**Q.** With “MSGTNRVAANLNMLFTNLPLLQRYGAAASAGFKLVEVSIPYTEPAEKLREAADEYHLKHTLINAPPGNWDDGFRGLASLKSAKKEFRKSLDTAIEYAKALGCCRVHVMAGIPKSDDDLENAHQTYSENVRFAAEKFKEHKLICLIEPINKYTIPGYHLNNYEDAMDVIQMDQSNNLKIQYDTFHAQQINGQIGAIMRKLKDYIGYIQVAQVPNRGACDTRGEIDYHFIFDEIRSINPSWVIGAEYLDAKPSFNWIENMSLSF” as the sequence, how does the “soluble on expression in E. coli” value read?
**A.** The value was “not soluble”.

**Q.** Which “soluble on expression in E. coli” value does the source give for “MAVSLSKGGNVSLSKEAPGLTGIVVGLGWDPRATDGQAFDLDGSVFLLDAGGKVRGDSDFIFYNNKTSSDGSVEHTGDNTTGAGEGDDETVKIDLSKVPADVDKIAVCVTIHEAETRNQNFGQVSKAYIRVMNQTGGAEIARYDLSEDASTDTAMIFGEVYRHGSDWKFKAVGQGYAGGLAPLARNYGVNV” here?
**A.** Its value is “soluble”.

**Q.** With “MADDPLYLDRTGEWAGLWWLPEIPDEKVPGFLRYDAECGLLLSLIGAFEDRVTSNPSPGVTAYHEGTRTWEVIHGVAEQREITLFDTIPISSKRTIGARVESPAKQTVTASVAIIGAHVRSEGDPQFAGVEVSVEDLGRWAGSSVFEGLLGAPDGNFDGTGSISVKPVEAQSVLVGGTEYRLVHTHTLPYFDQRKSETVGRMRDTVSIRIVPASPFSLNAALHEASLVQDLISLATHQSAGVIWLRVEVARSESQLPDGRTSPRRRADVLYSPVALGKHDAKPVDHHRMFFTCNSLPFEEVLPRWCETHVRLQAATNMILGLRYAPARFVENNLLTAVGAAEALHRNLRIGEKPFSKAEFTAMRGAMLDQVPSEHRERFKAAIRNDPTLRDRLHALAARPDEEAIGQLIPDVDYWAKRTTRARNDLAHEGRTPNHSFEELVAIVEVTTAVVILNVLQELGLSAERQREIVLTHPKLRHTVGLSREWLVPSKSD” as the sequence, how does the “soluble on expression in E. coli” value read?
**A.** The value was “not soluble”.

**Q.** With “MMIVGCYCMNKLVFCLMGPTASGKTGLACELLTHFPFEIISVDSAMIYRDMNIGTAKPSIHELQRAPHYLIDIKDPVESYSAAQFCTDALSLCAEIIKRGNIPLLVGGTMMYFNALQKGLATLPEADEAVRKRLEEEALSQGWDFLYQKLSQLDPVTAARIHAHDTQRIQRALEVYYLTGSTLSTYLTGPHERPDYYFVNLALFPEQRSWLHERIAQRFDAMLSEGFIEEVQQLQAKWPIQINLPSMRCVGYRQILQHLAGHYDYETMREKGIAATRQLAKRQLTWLRHWEGALFYDSQNVGFNTDIIAKIREILDNTVSNLEHHHHHH” as the sequence, how does the “soluble on expression in E. coli” value read?
**A.** The value was “not soluble”.

**Q.** Which “soluble on expression in E. coli” value does the source give for “MGSDKIHHHHHHMTGEKVHLTGAKETLLMTLYGKALESRLPHSLLGDHFADEAVRKIDYDFSRLKVDENLGIGLAIRAKTLDVRVEDFLARNPGAIVLHLGCGLDTRVFRVDPPPGVDWFDADYPQVIELRRKLYPPRDHYHLIASSVTEPGWLAEVPRNRPAMVVAEGLTPYLPADEGLRLVSRLVSHLAGGELMFDAYSRFGLTLLRLSPTIKATGAEVHWAIDDPHELELAVPKLRFVEDISAYMPEHAARMGWSAKLFVRLWKHIPALRKVGRLLRYRF” here?
**A.** Its value is “not soluble”.

**Q.** Which “soluble on expression in E. coli” value does the source give for “TDINSLRTRLRSGEHAFADTLAFIADGYDYQPQPFRNGDVDNAAGQNEGSCKTLGLALLEGLSDEEALLAFGEHYRSVQATPEGSDHGNIRALIKHGLAGVTFEGEPLKRK” here?
**A.** Its value is “not soluble”.

**Q.** Which “soluble on expression in E. coli” value does the source give for “MAGAITHDHAAAAQGRQGGPLIVTEDVELLDDLLRLCAAAGARPEVHHTVPDGRGTWEAAPLVLVGDDAARRVRGAARRRGVVLVGRDQDDSGVWRRAVEIGADHVLLLPDGEQWLVDRIADVAEGVGRPALTVGVIGGRGGAGASTLACALAVTSARQGRRTLLVDADPLGGGLDVLLGGETAEGLRWPAFAASRGRVGGGALEESLPELHALRVLSWDRGDAVAVPPQAVRAVLAAARRRGGAVVVDLPRRVDEGAAEALAQVDLGVLVVPAELRAIAAAARVASAAGMVLGDLRVAVRGPYAPGLDDREVARLLGLPLLGEVPAEPPVPDGGVPPGGAARGPLARFCAVFWDRALVEAGGVLEHHHHHH” here?
**A.** The value was “not soluble”.

**Q.** With “MSLQDIKDITLRQFGTGVSNLNEVAQKVKEDLGFTLTMTALDSDAVTQRAATQPDSFDIADIEYWICKKVWPTGNLQAMDTSKIKNYDKIVGIFRSGKLTPESTIAQGTAPHTVGFTSGPGGTDFVQEESGWMTLIPTIYNADTLGIRPDLIGRPIESWTELLNPEFKGKASILDISSIGIMDAAMVCEAMGEITYGDKGNMTREEIDRTMAIFTEAKKAGQFRAFWKTFDESVNLMASGEVVIQSMWSPAITAVKSRGIPCVYQPLREGYRSWGGGIGLSARLDGLALEAAYEYINWYLSGWVGGFLMRQGYYSAVPETSKEFMSENEWGYWFEGKPATDTITNPQGQAMAQAGEVRDGGSFEERMGRVACWNSVMDENQYMVRKWNEFIAAEGHHHHHH” as the sequence, how does the “soluble on expression in E. coli” value read?
**A.** The value was “not soluble”.

**Q.** With “MSLCWILMASHAQAEPFKIGLLVWSDQIAGQVAMRAGLEAEAAHLQQQARDKNLPSFTLDIKLAGDGPAGVEKQIQQMQAMVDDRVDLIIVQPTDNAALSSPLQAANQAGIPVVAYDQYISGGHLSAFVTSNNYQAGFLDGEYMAHHFADDHTIQIILVEYPYVSSTIDRVDGFFDALNQYKQPYRILRSYQAVEPVQGRAVGQQILQDFPQPGSVDALFTINDGGGLAIVDELEKAGRHELFVATIDGDPNSVARIRKGSIIKIDSAQFCGPIGAEAMRAAYAILTAGKVHEHWLVPVFPITRQSVAHYPGWSGPIPEHYSNPCLTFLCREGHHHHHH” as the sequence, how does the “soluble on expression in E. coli” value read?
**A.** Its value is “soluble”.
